Source: patent publication US12099068B2, “Biomarkers for graft-versus-host disease” (Incyte Corporation, priority 2018, dated 2024)

Tested on: plasma proteins
Assay: Plasma proteins modulated between baseline and day 28 in responders (CR, VGPR, PR; n = 19), Example 6 (Table 13)
Type: in vivo, human
Details: plasma protein (OLINK NPX); responders (CR, VGPR, PR; n = 19); itacitinib 200 mg or 300 mg QD with corticosteroids; day 28 vs baseline
How it was run: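 Longitudinal comparison, day 28 versus baseline, with steroid-naive (N=10) and steroid-refractory (N=18) patients combined. Proteins measured by OLINK proximity extension, log2 normalized protein expression. Differences tested by t tests, ANOVA, Pearson correlation, P<0.05 significant.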

B1: PLIN1 (protein, UniProt O60240 1-522, looked up)
Perilipin-1: MAVNKGLTLLDGDLPEQENVLQRVLQLPVVSGTCECFQKTYTSTKEAHPLVASVCNAYEKGVQSASSLAAWSMEPVVRRLSTQFTAANELACRGLDHLEEKIPALQYPPEKIASELKDTISTRLRSARNSISVPIASTSDKVLGAALAGCELAWGVARDTAEFAANTRAGRLASGGADLALGSIEKVVEYLLPPDKEESAPAPGHQQAQKSPKAKPSLLSRVGALTNTLSRYTVQTMARALEQGHTVAMWIPGVVPLSSLAQWGASVAMQAVSRRRSEVRVPWLHSLAAAQEEDHEDQTDTEGEDTEEEEELETEENKFSEVAALPGPRGLLGGVAHTLQKTLQTTISAVTWAPAAVLGMAGRVLHLTPAPAVSSTKGRAMSLSDALKGVTDNVVDTVVHYVPLPRLSLMEPESEFRDIDNPPAEVERREAERRASGAPSAGPEPAPRLAQPRRSLRSAQSPGAPPGPGLEDEVATPAAPRPGFPAVPREKPKRRVSDSFFRPSVMEPILGRTHYSQLRKKS
- Fold Change, Increased Expression from Baseline to Day 28: 2.4338

B2: PCDH17 (protein, UniProt O14917 18-1159, looked up)
Protocadherin-17: LKNLNYSVPEEQGAGTVIGNIGRDARLQPGLPPAERGGGGRSKSGSYRVLENSAPHLLDVDADSGLLYTKQRIDRESLCRHNAKCQLSLEVFANDKEICMIKVEIQDINDNAPSFSSDQIEMDISENAAPGTRFPLTSAHDPDAGENGLRTYLLTRDDHGLFGLDVKSRGDGTKFPELVIQKALDREQQNHHTLVLTALDGGEPPRSATVQINVKVIDSNDNSPVFEAPSYLVELPENAPLGTVVIDLNATDADEGPNGEVLYSFSSYVPDRVRELFSIDPKTGLIRVKGNLDYEENGMLEIDVQARDLGPNPIPAHCKVTVKLIDRNDNAPSIGFVSVRQGALSEAAPPGTVIALVRVTDRDSGKNGQLQCRVLGGGGTGGGGGLGGPGGSVPFKLEENYDNFYTVVTDRPLDRETQDEYNVTIVARDGGSPPLNSTKSFAIKILDENDNPPRFTKGLYVLQVHENNIPGEYLGSVLAQDPDLGQNGTVSYSILPSHIGDVSIYTYVSVNPTNGAIYALRSFNFEQTKAFEFKVLAKDSGAPAHLESNATVRVTVLDVNDNAPVIVLPTLQNDTAELQVPRNAGLGYLVSTVRALDSDFGESGRLTYEIVDGNDDHLFEIDPSSGEIRTLHPFWEDVTPVVELVVKVTDHGKPTLSAVAKLIIRSVSGSLPEGVPRVNGEQHHWDMSLPLIVTLSTISIILLAAMITIAVKCKRENKEIRTYNCRIAEYSHPQLGGGKGKKKKINKNDIMLVQSEVEERNAMNVMNVVSSPSLATSPMYFDYQTRLPLSSPRSEVMYLKPASNNLTVPQGHAGCHTSFTGQGTNASETPATRMSIIQTDNFPAEPNYMGSRQQFVQSSSTFKDPERASLRDSGHGDSDQADSDQDTNKGSCCDMSVREALKMKTTSTKSQPLEQEPEECVNCTDECRVLGHSDRCWMPQFPAANQAENADYRTNLFVPTVEANVETETYETVNPTGKKTFCTFGKDKREHTILIANVKPYLKAKRALSPLLQEVPSASSSPTKACIEPCTSTKGSLDGCEAKPGALAEASSQYLPTDSQYLSPSKQPRDPPFMASDQMARVFADVHSRASRDSSEMGAVLEQLDHPNRDLGRESVDAEEVVREIDKLLQDCRGNDPVAVRK
- Fold Change, Decreased Expression from Baseline to Day 28: −1.232

B3: TRANCE (protein, UniProt O14788 140-317, looked up)
Tumor necrosis factor ligand …: IRAEKAMVDGSWLDLAKRSKLEAQPFAHLTINATDIPSGSHKVSLSSWYHDRGWAKISNMTFSNGKLIVNQDGFYYLYANICFRHHETSGDLATEYLQLMVYVTKTSIKIPSSHTLMKGGSTKYWSGNSEFHFYSINVGGFFKLRSGEEISIEVSNPSLLDPDQDATYFGAFKVRDID
- Fold Change, Decreased Expression from Baseline to Day 28: −1.4034

B4: ARG1 (protein, UniProt P05089 1-322, looked up)
Arginase-1: MSAKSRTIGIIGAPFSKGQPRGGVEEGPTVLRKAGLLEKLKEQECDVKDYGDLPFADIPNDSPFQIVKNPRSVGKASEQLAGKVAEVKKNGRISLVLGGDHSLAIGSISGHARVHPDLGVIWVDAHTDINTPLTTTSGNLHGQPVSFLLKELKGKIPDVPGFSWVTPCISAKDIVYIGLRDVDPGEHYILKTLGIKYFSMTEVDRLGIGKVMEETLSYLLGRKKRPIHLSFDVDGLDPSFTPATGTPVVGGLTYREGLYITEEIYKTGLLSGLDIMEVNPSLGKTPEEVTRTVNTAVAITLACFGLAREGNHKPIDYLNPPK
- Fold Change, Decreased Expression from Baseline to Day 28: −1.3036
